Our source for the EC50, inhibition of thrombin-mediated hyper-permeability of hPPAEC (t=255 min) and concentration values is patent US20190374607A1.

The assay deals with chemokine (C-X-C) motif receptor (CXCR) 4 (UniProt P61073). Put plainly: cell-based or functional assay.
Chain of chemokine (C-X-C) motif receptor (CXCR) 4 (P61073 whole entry): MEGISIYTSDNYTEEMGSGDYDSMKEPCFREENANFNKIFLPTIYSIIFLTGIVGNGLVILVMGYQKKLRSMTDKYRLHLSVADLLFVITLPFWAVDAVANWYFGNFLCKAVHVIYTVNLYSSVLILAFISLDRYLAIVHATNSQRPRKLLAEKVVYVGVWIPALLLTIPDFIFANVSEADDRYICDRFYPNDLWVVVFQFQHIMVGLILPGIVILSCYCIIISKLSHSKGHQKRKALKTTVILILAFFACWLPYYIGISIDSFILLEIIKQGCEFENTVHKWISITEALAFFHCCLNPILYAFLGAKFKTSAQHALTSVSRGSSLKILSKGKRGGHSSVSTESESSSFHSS

The substance “CXCL12 K27A/R41A/R47A (from UniProt P48061 22-89) (ligand)” came in with an EC50, inhibition of thrombin-mediated hyper-permeability of hPPAEC (t=255 min) of 0.05 to 0.5 nM.
Same read-out and setting: the result for “CXCL12 R47E (from UniProt P48061 22-89) (ligand)” reads 0.5 to 50 nM.
In the case of “CXCL12β (from UniProt P48061 22-93) (ligand)”, the EC50, inhibition of thrombin-mediated hyper-permeability of hPPAEC (t=255 min) lay in the range of 0.05 to 0.5 nM.
Substance “Locked dimer CXCL122 (constitutively dimeric CXCL12 variant, L36C/A65C) (from UniProt O62657 22-89) (ligand)” displayed a concentration at which thrombin-mediated hPPAEC barrier impairment was affected (t=255 min) of 50 nM.
